Here are results for 3 molecules from patent publication US20190359677A1 (published 2019).

Experiment [1] addresses T1, MCV trLT and sT (large T and small T antigens of Merkel cell polyomavirus, shared exon 1) peptide on … (human).
T1 peptide: KLLEIAPNC
Put plainly: cytokine release.

Experiment [2] has as its target T2, MCV trLT (truncated large T antigen of Merkel cell polyomavirus) peptide on HLA-A*02:01 (human).
T2 peptide: SMFDEVDEA
In words: cytokine release.

B1: KLL-85 (TCR, V domains shown)
Valpha: GQQLNQSPQSMFIQEGEDVSMNCTSSSIFNTWLWYKQDPGEGPVLLIALYKAGELTSNGRLTAQFGITRKDSFLNISASIPSDVGIYFCAGQLNQGAQKLVFGQGTRLTINP
Vbeta: DAGVIQSPRHEVTEMGQEVTLRCKPISGHNSLFWYRQTMMRGLELLIYFNNNVPIDDSGMPEDRFSAKMPNASFSTLKIQPSEPRDSAVYFCASSFYSADTQYFGPGTRLTVL
With B1, the binding result in experiment [1] is “recognises”.

B2: SMF-48 (TCR, V domains shown)
Valpha: AQTVTQSQPEMSVQEAETVTLSCTYDTSESNYYLFWYKQPPSRQMILVIRQEAYKQQNATENRFSVNFQKAAKSFSLKISDSQLGDTAMYFCAFMKRGNRDDKIIFGKGTRLHILP
Vbeta: GAVVSQHPSWVICKSGTSVKIECRSLDFQATTMFWYRQFPKQSLMLMATSNEGSKATYEQGVEKDKFLINHASLTLSTLTVTSAHPEDSSFYICSASPTSGRRTQYFGPGTRLTVL
Regarding B2, the binding result in experiment [2] is “recognises”; in experiment [1], “no recognition”.

B3: SMF-72 (TCR, V domains shown)
Valpha: AQTVTQSQPEMSVQEAETVTLSCTYDTSESDYYLFWYKQPPSRQMILVIRQEAYKQQNATENRFSVNFQKAAKSFSLKISDSQLGDAAMYFCAYRGTSGTYKYIFGTGTRLKVLA
Vbeta: DTGVSQDPRHKITKRGQNVTFRCDPISEHNRLYWYRQTLGQGPEFLTYFQNEAQLEKSRLLSDRFSAERPKGSFSTLEIQRTEQGDSAMYLCASSKLAGKNIQYFGAGTRLSVL
On to B3, for which the results for the binding result in experiment [2] and in experiment [1] were “recognises” and “no recognition”, respectively.
